Measured values taken from patent EP4636087A1, “ANTI-GPA33 ANTIBODY AND UTILIZATION THEREOF” (Kagoshima University, priority 2022, dated 2024).

T1: mouse GPA33 expressed on CHO-K1 cells (mGPA33-expressing cells) (mouse, UniProt Q9JKA5 22-319)
T1 construct: whole, on cells
T1 sequence (looked up): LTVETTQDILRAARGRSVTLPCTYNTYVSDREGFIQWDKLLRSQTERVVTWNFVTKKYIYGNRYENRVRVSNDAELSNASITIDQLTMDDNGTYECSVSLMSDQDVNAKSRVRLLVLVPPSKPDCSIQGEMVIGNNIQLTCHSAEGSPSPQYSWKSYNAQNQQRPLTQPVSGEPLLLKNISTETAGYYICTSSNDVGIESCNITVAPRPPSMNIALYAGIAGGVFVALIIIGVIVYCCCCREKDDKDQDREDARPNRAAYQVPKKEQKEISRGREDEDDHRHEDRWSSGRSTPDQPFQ

T2: human GPA33 expressed on CHO-K1 cells (hGPA33-expressing cells co-expressing GFP) (human, UniProt Q99795 22-319)
T2 construct: whole, on cells; CHO-K1 transfected with an hGPA33 expression vector (ORIGENE) co-expressing GFP
T2 sequence (looked up): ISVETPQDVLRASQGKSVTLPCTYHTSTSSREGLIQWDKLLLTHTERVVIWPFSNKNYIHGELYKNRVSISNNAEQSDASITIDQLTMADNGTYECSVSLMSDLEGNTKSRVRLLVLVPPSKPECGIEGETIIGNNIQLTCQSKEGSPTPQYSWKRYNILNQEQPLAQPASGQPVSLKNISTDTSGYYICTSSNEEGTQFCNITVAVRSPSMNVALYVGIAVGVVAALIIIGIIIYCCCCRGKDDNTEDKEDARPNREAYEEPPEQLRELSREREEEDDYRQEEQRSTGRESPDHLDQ

T3: human GPA33 expressed on HEK293STF cells (EGFP-human GPA33 expression vector, ORIGENE RG210225) (human, UniProt Q99795 22-319)
T3 sequence (looked up): T2 sequence (looked up)

T4: mouse GPA33 recombinant protein (C-terminal His tag fusion protein, abcam) (mouse, UniProt Q9JKA5 22-235, limits assumed)
T4 construct: Bought recombinant protein (abcam); also called mGPA33
T4 sequence (looked up): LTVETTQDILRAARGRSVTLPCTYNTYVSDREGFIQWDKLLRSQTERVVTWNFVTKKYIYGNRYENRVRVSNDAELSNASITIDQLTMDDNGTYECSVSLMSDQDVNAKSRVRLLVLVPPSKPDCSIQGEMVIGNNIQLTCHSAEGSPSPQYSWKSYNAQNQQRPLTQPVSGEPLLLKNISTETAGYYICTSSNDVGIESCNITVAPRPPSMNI

T5: human GPA33 recombinant protein (C-terminal His tag fusion protein, abcam) (human, UniProt Q99795 22-235, limits assumed)
T5 construct: Bought recombinant protein (abcam); also called hGPA33
T5 sequence (looked up): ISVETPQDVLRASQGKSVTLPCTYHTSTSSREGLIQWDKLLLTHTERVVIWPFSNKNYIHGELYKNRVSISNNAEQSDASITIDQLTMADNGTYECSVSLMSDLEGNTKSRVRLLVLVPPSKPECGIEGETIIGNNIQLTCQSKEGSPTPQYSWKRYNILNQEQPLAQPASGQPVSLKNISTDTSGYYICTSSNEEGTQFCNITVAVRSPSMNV

B1: GPA33-2RC28 cloned scFv phage (scFv)
scFv: EVQLVESGGGLVKPGGSLRLSCAASGFTFSSYSMNWVRQAPGKGLEWVSSISRDSTYIYYADSVKGRFTISRDNAKNSLYLQMNSLRAEDTAVYYCAREGVAGAFDIWGQGTMVTVSSGGGGSGGGGSGSTGSAIQLTQSPSSLSASVGDRVTITCRASQSISSYLNWYQQKPGKAPKLLIYIASSLQSGVPSRFSGSGSGTDFTLTISSLQPEDFATYYCQQSYNTWTFGQGTKVEIK
B2: GPA33-2RC17 cloned scFv phage (scFv)
scFv: QMQLVQSGGGLVKPGGSLRLSCAASGFTFSSYNMNWVRQAPGKGLEWVSSISSSGDFMYYADSVKGRFTISRDNAKNSLYLQMSSLRAEDTAVYYCAREGPGTPFDYWGQGTLVTVSSGGGGSGGGGSGSTGSAIQLTQSPSSLSASVGDRVTITCRASQSISSFLNWYQHKPGKAPKLLIYVASSLQSGVPSRFSGSGSGTDFTLTISSLQPEDFATYYCQQSHNTPYTFGQGTKLEIK
notes: also called G17
B3: R1CRD-G17-His (other)
chain: ISAEGSQACAKGCELCSEVNGCLKCSPKLFILLERNDIRQVGVCLPSCPPGYFDARNPDMNKCIKCKIEHCEACFSHNFCTKCKEGLYLHKGRCYPACPEGSSAANGTMECSSGGGGSGGGGSGGGGSQMQLVQSGGGLVKPGGSLRLSCAASGFTFSSYNMNWVRQAPGKGLEWVSSISSSGDFMYYADSVKGRFTISRDNAKNSLYLQMSSLRAEDTAVYYCAREGPGTPFDYWGQGTLVTVSSGGGGSGGGGSGSTGSAIQLTQSPSSLSASVGDRVTITCRASQSISSFLNWYQHKPGKAPKLLIYVASSLQSGVPSRFSGSGSGTDFTLTISSLQPEDFATYYCQQSHNTPYTFGQGTKLEIKHHHHHHGA
B4: GPA2RC17-Fc (anti-GPA33 single-chain Fv-Fc, scFv linked to human IgG1-Fc) (Fc fusion)
chain: QMQLVQSGGGLVKPGGSLRLSCAASGFTFSSYNMNWVRQAPGKGLEWVSSISSSGDFMYYADSVKGRFTISRDNAKNSLYLQMSSLRAEDTAVYYCAREGPGTPFDYWGQGTLVTVSSGGGGSGGGGSGSTGSAIQLTQSPSSLSASVGDRVTITCRASQSISSFLNWYQHKPGKAPKLLIYVASSLQSGVPSRFSGSGSGTDFTLTISSLQPEDFATYYCQQSHNTPYTFGQGTKLEIKPKSSDKTHTCPPCPAPEAEGAPSVFLFPPKPKDTLMISRTPEVTCVVVDVSHEDPEVKFNWYVDGVEVHNAKTKPREEQYNSTYRVVSVLTVLHQDWLNGKEYKCAVSNKALPASIEKTISKAKGQPREPQVYTLPPSREEMTKNQVSLTCLVKGFYPSDIAVEWESNGQPENNYKTTPPVLDSDGSFFLYSKLTVDKSRWQQGNVFSCSVMHEALHNHYTQKSLSLSPGK
notes: also called 2RC17 scFv-Fc; 2RC17-scFv-Fc
B5: G17-R1CRD-His (other)
chain: QMQLVQSGGGLVKPGGSLRLSCAASGFTFSSYNMNWVRQAPGKGLEWVSSISSSGDFMYYADSVKGRFTISRDNAKNSLYLQMSSLRAEDTAVYYCAREGPGTPFDYWGQGTLVTVSSGGGGSGGGGSGSTGSAIQLTQSPSSLSASVGDRVTITCRASQSISSFLNWYQHKPGKAPKLLIYVASSLQSGVPSRFSGSGSGTDFTLTISSLQPEDFATYYCQQSHNTPYTFGQGTKLEIKGGSGGSISAEGSQACAKGCELCSEVNGCLKCSPKLFILLERNDIRQVGVCLPSCPPGYFDARNPDMNKCIKCKIEHCEACFSHNFCTKCKEGLYLHKGRCYPACPEGSSAANGTMECSSPAHHHHHHGA
B6: G17-R1CRD-GS3-Fcm (Fc fusion)
chain: QMQLVQSGGGLVKPGGSLRLSCAASGFTFSSYNMNWVRQAPGKGLEWVSSISSSGDFMYYADSVKGRFTISRDNAKNSLYLQMSSLRAEDTAVYYCAREGPGTPFDYWGQGTLVTVSSGGGGSGGGGSGSTGSAIQLTQSPSSLSASVGDRVTITCRASQSISSFLNWYQHKPGKAPKLLIYVASSLQSGVPSRFSGSGSGTDFTLTISSLQPEDFATYYCQQSHNTPYTFGQGTKLEIKGGSGGSISAEGSQACAKGCELCSEVNGCLKCSPKLFILLERNDIRQVGVCLPSCPPGYFDARNPDMNKCIKCKIEHCEACFSHNFCTKCKEGLYLHKGRCYPACPEGSSAANGTMECSSGGGGSGGGGSGGGGSEPKSADKTHTCPPCPAPEAEGAPSVFLFPPKPKDTLMISRTPEVTCVVVDVSHEDPEVKFNWYVDGVEVHNAKTKPREEQYNSTYRVVSVLTVLHQDWLNGKEYKCAVSNKALPASIEKTISKAKGQPREPQVYTLPPSREEMTKNQVSLTCLVKGFYPSDIAVEWESNGQPENNYKTTPPVLDSDGSFFLYSKLTVDKSRWQQGNVFSCSVMHEALHNHYTQKSLSLSPGK
B7: G17-R4CRD-His (other)
chain: QMQLVQSGGGLVKPGGSLRLSCAASGFTFSSYNMNWVRQAPGKGLEWVSSISSSGDFMYYADSVKGRFTISRDNAKNSLYLQMSSLRAEDTAVYYCAREGPGTPFDYWGQGTLVTVSSGGGGSGGGGSGSTGSAIQLTQSPSSLSASVGDRVTITCRASQSISSFLNWYQHKPGKAPKLLIYVASSLQSGVPSRFSGSGSGTDFTLTISSLQPEDFATYYCQQSHNTPYTFGQGTKLEIKGGSGGSGGNCTGCIICSEENGCSTCQQRLFLFIRREGIRQYGKCLHDCPPGYFGIRGQEVNRCKKCGATCESCFSQDFCIRCKRQFYLYKGKCLPTCPPGTLAHQNTRECQGHHHHHHGA
B8: GPA2RC28-Fc (anti-GPA33 single-chain Fv-Fc, scFv linked to human IgG1-Fc) (Fc fusion)
chain: EVQLVESGGGLVKPGGSLRLSCAASGFTFSSYSMNWVRQAPGKGLEWVSSISRDSTYIYYADSVKGRFTISRDNAKNSLYLQMNSLRAEDTAVYYCAREGVAGAFDIWGQGTMVTVSSGGGGSGGGGSGSTGSAIQLTQSPSSLSASVGDRVTITCRASQSISSYLNWYQQKPGKAPKLLIYIASSLQSGVPSRFSGSGSGTDFTLTISSLQPEDFATYYCQQSYNTWTFGQGTKVEIKPKSSDKTHTCPPCPAPEAEGAPSVFLFPPKPKDTLMISRTPEVTCVVVDVSHEDPEVKFNWYVDGVEVHNAKTKPREEQYNSTYRVVSVLTVLHQDWLNGKEYKCAVSNKALPASIEKTISKAKGQPREPQVYTLPPSREEMTKNQVSLTCLVKGFYPSDIAVEWESNGQPENNYKTTPPVLDSDGSFFLYSKLTVDKSRWQQGNVFSCSVMHEALHNHYTQKSLSLSPGK
notes: also called 2RC28 scFv-Fc; 2RC28 single-chain Fv-Fc
B9: G17-R2CRD-His (other)
chain: QMQLVQSGGGLVKPGGSLRLSCAASGFTFSSYNMNWVRQAPGKGLEWVSSISSSGDFMYYADSVKGRFTISRDNAKNSLYLQMSSLRAEDTAVYYCAREGPGTPFDYWGQGTLVTVSSGGGGSGGGGSGSTGSAIQLTQSPSSLSASVGDRVTITCRASQSISSFLNWYQHKPGKAPKLLIYVASSLQSGVPSRFSGSGSGTDFTLTISSLQPEDFATYYCQQSHNTPYTFGQGTKLEIKGGGGSGGGGSGGGGSNPICKGCLSCSKDNGCSRCQQKLFFFLRREGMRQYGECLHSCPSGYYGHRAPDMNRCARCRIENCDSCFSKDFCTKCKVGFYLHRGRCFDECPDGFAPLEETMECVEGHHHHHHGA

Tests used:
[1] = target: T1, mouse GPA33 expressed on CHO-K1 cells …; test: FACS, cloned phage on GPA33-expressing CHO-K1 cells
[2] = target: T2, human GPA33 expressed on CHO-K1 cells …; test: as above
[3] = target: T3, human GPA33 expressed on HEK293STF …; test: cell-based or functional assay
[4] = target: T4, mouse GPA33 recombinant protein …; test: SPR, Biacore T200, 25°C, GPA33-His amine-coupled on CM5, scFv-Fc as analyte, 1:1 binding model
[5] = target: T5, human GPA33 recombinant protein …; test: as above

Binder | EC50(GPA33) (nM), Wnt/β-catenin reporter in 293STF cells expressing GPA33 [3] | EC50(MOG)/ EC50(GPA33) [3] | further results
B1 | – | – | binding result [1]: binds; binding result [2]: binds
B2 | – | – | binding result [1]: binds; binding result [2]: binds
B3 | 0.027 nM | 307 | –
B4 | – | – | Kd [4]: 3.8 nM; Kd [5]: 1.4 nM
B5 | 0.031 nM | 968 | –
B6 | 0.054 nM | > 556 | –
B7 | 0.008 nM | 348 | –
B8 | – | – | Kd [4]: 6.9 nM; Kd [5]: 5.7 nM
B9 | 0.021 nM | 15.2 | –
